This note sets out measurements from patent US6790646B2, “Mutants of monoamine oxidase B” (Research Development Foundation, priority 1998, dated 2004).

Series [1] relates to MAO B. As to the kind of experiment: Kinetic analysis of wild-type and mutant MAO B with [14C]PEA substrate (transfected COS-7 cell homogenates). The settings on record: PEA substrate; for Kcat / Km / Vmax: pH 7.5, 37° C., apparent, mean + S.E.M., n=3; for activity relative to wild-type: activity too low to determine kinetic parameters. It is filed as biochemical, human. The protocol:
(§1) The wild-type and mutant MAO B enzymes were expressed in mammalian COS-7 cells, and the enzymatic properties of the native enzyme and its mutant enzymes were determined and compared. Wild-type and mutant MAO B cDNAs were transiently transfected into COS-7 cells by electroporation. Cells were harvested during late log phase growth and resuspended to a concentration of 3.125×10^6 cells/ml in DMEM supplemented with 10% fetal bovine serum (FBS). Fifteen μg of normal or mutant cDNA were added to 0.8 ml (2.5×10^6 cells) of cell suspension. Electroporation was carried out in a Bio-Rad Gene Pulser with a setting of 0.25 kV and 500 μF. Cells were resuspended in 15 ml of DMEM/FBS and incubated at 37° C. with 5% CO2 for 48 h.
(§2) Aliquots (20 μl) of transfected COS-7 cell homogenates were incubated for 10 min at 37° C. in the presence of various concentrations of [^14C]PEA (20 mCi/mmol) or [^14C]benzylamine (10 mCi/mmol) in 50 mM sodium phosphate buffer, pH 7.5 (200 μl total volume). Substrate concentrations ranged from 0.25-2.5 times the Km value (determined in pilot experiments) to yield 10 equally-spaced reciprocal increments. Parallel assays were carried out with untransfected COS-7 cell lysates as a control. Reactions were stopped by addition of 25 μl of 6 N HCl and the deaminated products were extracted by vortexing for 30 seconds with 500 μl of toluene or toluene:ethyl acetate (1:1) for benzylamine or PEA, respectively. Samples were processed as described previously (28). Apparent Km and Vmax values were determined by linear regression analysis of Lineweaver-Burk plots. Kcat values were calculated from the Vmax values divided by the concentration of wild-type or mutant MAO B determined in each experiment. Expression levels of wild-type or mutant MAO B were determined in triplicate for six separate experiments as follows: wild-type=11.1+2.07; F423A=9.30+1.89; E427Q=10.3+1.29; T428A=10.2+2.07; T428S=10.2+1.53 pmol MAO B/mg protein. Data are given as means +S.E.M. pmol/mg of protein determined using a subunit molecular weight of 58,800.

For the next series, the system named is COS-7 cells. As to the kind of experiment: Expression levels of wild-type or mutant MAO B in transfected COS-7 cells. The following applies: transiently transfected COS-7 cells, triplicate, six experiments, mean + S.E.M., subunit molecular weight 58,800. The protocol:
as §1, §2

The test system of series [2] is MAO B. The experiment in a line: Kinetic analysis of wild-type and mutant MAO B with [14C]benzylamine substrate (transfected COS-7 cell homogenates). The series is classed as biochemical, human. The settings on record: for Kcat / Km / Vmax: pH 7.5, 37° C., apparent, mean + S.E.M., n=3; for Kcat reduced by: versus wild-type; for activity relative to wild-type: activity too low to determine kinetic parameters. The protocol: as §1, §2

In series [3] the test system is MAO B. The experiment in a line: pH profiles of wild-type and mutant MAO B enzymatic activity with [14C]benzylamine. It is filed as biochemical, human. The settings on record: pH 6.0 to 9.0, 500 μM benzylamine. The protocol: (§3) Aliquots (20 μl) of transfected COS-7 cell homogenates were incubated for 10 min at 37° C. in the presence of 500 μM (^14C)benzylamine (2.5 mCi/mmol) in 50 mM sodium phosphate buffer, pH 6.0, 6.5, 7.0, 7.5, 8.0, 8.5 or 9.0 (200 μl total volume). Reactions were stopped by addition of 25 μl of 6 N HCl. Parallel assays were carried out with untransfected COS-7 homogenates as a control. Samples were processed as previously described (28) and the derived specific activity values (nmol/min·mg protein) were divided by wild-type or mutant MAO B concentration, determined for each experiment, to obtain enzymatic activity values (nmol/min·m g MAO B). Enzymatic activities were determined in duplicate for three separate experiments.
(§4) To examine the possibility that the mutation effects a proton-dependent step in the reaction, the enzymatic activity of the mutant and wild-type MAO B enzymes was determined at different pH values from 6.0 to 9.0 (FIG. 4).

Series [4] addresses T1, MAO B (Homo sapiens, UniProt P27338, E427Q).
T1 construct: expressed in transfected cells; host or cells: COS-7
T1 sequence (P27338 2-520 E427Q): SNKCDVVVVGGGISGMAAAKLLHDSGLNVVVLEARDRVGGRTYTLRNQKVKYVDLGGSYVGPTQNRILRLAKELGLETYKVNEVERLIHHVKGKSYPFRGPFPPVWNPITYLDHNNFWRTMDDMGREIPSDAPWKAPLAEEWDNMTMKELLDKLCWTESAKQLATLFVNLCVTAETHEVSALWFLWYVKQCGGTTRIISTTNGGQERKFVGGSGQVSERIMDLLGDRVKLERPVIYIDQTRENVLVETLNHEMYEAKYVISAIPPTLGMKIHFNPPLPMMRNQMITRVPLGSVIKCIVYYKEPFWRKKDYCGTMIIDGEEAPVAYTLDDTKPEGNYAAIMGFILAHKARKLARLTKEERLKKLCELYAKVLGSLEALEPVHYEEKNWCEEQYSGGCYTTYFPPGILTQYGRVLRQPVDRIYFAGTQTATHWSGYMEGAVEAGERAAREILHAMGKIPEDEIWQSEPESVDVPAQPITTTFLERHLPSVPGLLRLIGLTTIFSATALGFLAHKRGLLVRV
The series is described as above. The series is classed as biochemical. The settings on record: pH 6.0 to 9.0, 500 μM benzylamine. The protocol:
as §3, §4

B1: WT: wild-type human MAO B enzyme expressed from cDNA in pSVK3 in COS-7 cells (protein, UniProt P27338 2-520, looked up)
Amine oxidase …: SNKCDVVVVGGGISGMAAAKLLHDSGLNVVVLEARDRVGGRTYTLRNQKVKYVDLGGSYVGPTQNRILRLAKELGLETYKVNEVERLIHHVKGKSYPFRGPFPPVWNPITYLDHNNFWRTMDDMGREIPSDAPWKAPLAEEWDNMTMKELLDKLCWTESAKQLATLFVNLCVTAETHEVSALWFLWYVKQCGGTTRIISTTNGGQERKFVGGSGQVSERIMDLLGDRVKLERPVIYIDQTRENVLVETLNHEMYEAKYVISAIPPTLGMKIHFNPPLPMMRNQMITRVPLGSVIKCIVYYKEPFWRKKDYCGTMIIDGEEAPVAYTLDDTKPEGNYAAIMGFILAHKARKLARLTKEERLKKLCELYAKVLGSLEALEPVHYEEKNWCEEQYSGGCYTTYFPPGILTQYGRVLRQPVDRIYFAGTETATHWSGYMEGAVEAGERAAREILHAMGKIPEDEIWQSEPESVDVPAQPITTTFLERHLPSVPGLLRLIGLTTIFSATALGFLAHKRGLLVRV
Usually Km stands for the substrate concentration at which the rate is half of its maximum. In the case of B1, in the series with MAO B [1], the Kcat is reported as 29.8 + 5.0 min^−1, the Km came out at 3.38 µM and the Vmax was 0.325 + 0.008 nmol/min · mg protein. The Expression level in the series on COS-7 cells is 11.1+2.07 pmol MAO B/mg protein. Moreover, in the series on MAO B [2], the Kcat is on record as 83.0 + 14.4 min^−1, the Km came out at 19.3 µM and the Vmax was 0.879 + 0.19 nmol/min · mg protein. Besides, the “pH profile of enzymatic activity” value in the series with MAO B [3] is reported as “characteristic increase in activity with increasing pH”.

B2: T428 A: human MAO B mutant, Thr428 changed to Ala (protein, UniProt P27338 2-520, looked up, variant T428A)
Amine oxidase …: SNKCDVVVVGGGISGMAAAKLLHDSGLNVVVLEARDRVGGRTYTLRNQKVKYVDLGGSYVGPTQNRILRLAKELGLETYKVNEVERLIHHVKGKSYPFRGPFPPVWNPITYLDHNNFWRTMDDMGREIPSDAPWKAPLAEEWDNMTMKELLDKLCWTESAKQLATLFVNLCVTAETHEVSALWFLWYVKQCGGTTRIISTTNGGQERKFVGGSGQVSERIMDLLGDRVKLERPVIYIDQTRENVLVETLNHEMYEAKYVISAIPPTLGMKIHFNPPLPMMRNQMITRVPLGSVIKCIVYYKEPFWRKKDYCGTMIIDGEEAPVAYTLDDTKPEGNYAAIMGFILAHKARKLARLTKEERLKKLCELYAKVLGSLEALEPVHYEEKNWCEEQYSGGCYTTYFPPGILTQYGRVLRQPVDRIYFAGTEAATHWSGYMEGAVEAGERAAREILHAMGKIPEDEIWQSEPESVDVPAQPITTTFLERHLPSVPGLLRLIGLTTIFSATALGFLAHKRGLLVRV
Consider B2, for which, in the series with MAO B [1], the “Kcat relative to wild-type (reduction)” value was ~50 % of wild-type, the Kcat was 14.3 + 2.6 min^−1, the Km amounted to 11.1 µM and the Vmax was 0.161 + 0.039 nmol/min · mg protein. In addition, in the series with COS-7 cells, the Expression level was 10.2+2.07 pmol MAO B/mg protein. Further, in the series on MAO B [2], the “Km compared with wild-type” value was “approximately equal to wild-type”, the Kcat was 46.2 + 19.1 min^−1, the Km is 18.6 µM and the Vmax is on record as 0.374 + 0.06 nmol/min · mg protein. Besides, the “Kcat reduced by” value with MAO B [2] is reported as 44%.

B3: E427 Q: human MAO B mutant, Glu427 changed to Gln (protein, UniProt P27338 2-520, looked up, variant E427Q)
Amine oxidase …: SNKCDVVVVGGGISGMAAAKLLHDSGLNVVVLEARDRVGGRTYTLRNQKVKYVDLGGSYVGPTQNRILRLAKELGLETYKVNEVERLIHHVKGKSYPFRGPFPPVWNPITYLDHNNFWRTMDDMGREIPSDAPWKAPLAEEWDNMTMKELLDKLCWTESAKQLATLFVNLCVTAETHEVSALWFLWYVKQCGGTTRIISTTNGGQERKFVGGSGQVSERIMDLLGDRVKLERPVIYIDQTRENVLVETLNHEMYEAKYVISAIPPTLGMKIHFNPPLPMMRNQMITRVPLGSVIKCIVYYKEPFWRKKDYCGTMIIDGEEAPVAYTLDDTKPEGNYAAIMGFILAHKARKLARLTKEERLKKLCELYAKVLGSLEALEPVHYEEKNWCEEQYSGGCYTTYFPPGILTQYGRVLRQPVDRIYFAGTQTATHWSGYMEGAVEAGERAAREILHAMGKIPEDEIWQSEPESVDVPAQPITTTFLERHLPSVPGLLRLIGLTTIFSATALGFLAHKRGLLVRV
B3: the “activity relative to wild-type” value in the series with MAO B [1] is “(<5% wt)”; with MAO B [1] (listed as E427Q) it was under 5 % wt; in the series on MAO B [2] it was “(<5% wt)”; in the series with MAO B [2] (listed as E427Q), under 5 % wt; in the series with MAO B [4] it was < 5 % of wild-type. The Expression level in the series on COS-7 cells was 10.3+1.29 pmol MAO B/mg protein. Moreover, in the series with MAO B [3], the “pH profile of enzymatic activity” value was “essentially independent of pH”.

B4: T428 S: human MAO B mutant, Thr428 changed to Ser (protein, UniProt P27338 2-520, looked up, variant T428S)
Amine oxidase …: SNKCDVVVVGGGISGMAAAKLLHDSGLNVVVLEARDRVGGRTYTLRNQKVKYVDLGGSYVGPTQNRILRLAKELGLETYKVNEVERLIHHVKGKSYPFRGPFPPVWNPITYLDHNNFWRTMDDMGREIPSDAPWKAPLAEEWDNMTMKELLDKLCWTESAKQLATLFVNLCVTAETHEVSALWFLWYVKQCGGTTRIISTTNGGQERKFVGGSGQVSERIMDLLGDRVKLERPVIYIDQTRENVLVETLNHEMYEAKYVISAIPPTLGMKIHFNPPLPMMRNQMITRVPLGSVIKCIVYYKEPFWRKKDYCGTMIIDGEEAPVAYTLDDTKPEGNYAAIMGFILAHKARKLARLTKEERLKKLCELYAKVLGSLEALEPVHYEEKNWCEEQYSGGCYTTYFPPGILTQYGRVLRQPVDRIYFAGTESATHWSGYMEGAVEAGERAAREILHAMGKIPEDEIWQSEPESVDVPAQPITTTFLERHLPSVPGLLRLIGLTTIFSATALGFLAHKRGLLVRV
For the molecule B4, in the series on MAO B [1], the “Kcat relative to wild-type (reduction)” value is recorded as ~50 % of wild-type, the Kcat was 14.5 + 2.0 min^−1, the Km was determined as 11.6 µM and the Vmax is recorded as 0.162 + 0.22 nmol/min · mg protein. The Expression level with COS-7 cells is given as 10.2+1.53 pmol MAO B/mg protein. In addition, in the series with MAO B [2], the “Km compared with wild-type” value was “approximately equal to wild-type”, the Kcat is on record as 27.2 + 5.8 min^−1, the Km turned out to be 5.4 µM and the Vmax was 0.236 + 0.05 nmol/min · mg protein. Also, the “Kcat reduced by” value with MAO B [2] is reported as 67%.
